Residue numbers refer to the chain shown, from its start. Names may count otherwise.
B1: H183/L072 VH H35A (antibody, name in Kabat numbering, V domains shown)
VH: QVQLVESGGGLVQPGRSLRLSCAASGFTFSNAWMAWVRQAPGKGLEWVAQIKDKGNAYAAYYAPSVKGRFTISRDDSKNSIYLQMNSLKTEDTAVYYCHYVHYASASTVLPAFGVDAWGQGTTVTVSS
VL: DIVMTQSPLSLPVTPGEPASISCQASQELVHMNRNTYLHWYQQKPGQAPRLLIYKVSNRFPGVPDRFSGSGSGTDFTLKISRVEAEDVGVYYCAQGTSVPFTFGQGTKLEIK
B2: H183/L072 VH Q50A (antibody, name in Kabat numbering, V domains shown)
VH: B1 VH with A35H, Q50A
VL: B1 VL
B3: H183/L072 VH F29G (antibody, name in Kabat numbering, V domains shown)
VH: B1 VH with F29G, A35H
VL: B1 VL
B4: H183/L072 VH H35G (antibody, name in Kabat numbering, V domains shown)
VH: B1 VH with A35G
VL: B1 VL
B5: H183/L072 VH H35P (antibody, name in Kabat numbering, V domains shown)
VH: B1 VH with A35P
VL: B1 VL
B6: H183/L072 VH N53P (antibody, name in Kabat numbering, V domains shown)
VH: B1 VH with A35H, N56P
VL: B1 VL
B7: H183/L072 VH W33M (antibody, name in Kabat numbering, V domains shown)
VH: B1 VH with W33M, A35H
VL: B1 VL
B8: H183/L072 VH K52I (antibody, name in Kabat numbering, V domains shown)
VH: B1 VH with A35H, K52I
VL: B1 VL
B9: H183/L072 VH D52aA (antibody, name in Kabat numbering, V domains shown)
VH: B1 VH with A35H, D53A
VL: B1 VL
B10: H183/L072 VH K52G (antibody, name in Kabat numbering, V domains shown)
VH: B1 VH with A35H, K52G
VL: B1 VL
B11: H183/L072 VH I51P (antibody, name in Kabat numbering, V domains shown)
VH: B1 VH with A35H, I51P
VL: B1 VL
B12: H183/L072 VH W33I (antibody, name in Kabat numbering, V domains shown)
VH: B1 VH with W33I, A35H
VL: B1 VL
B13: H183/L072 VH A57L (antibody, name in Kabat numbering, V domains shown)
VH: B1 VH with A35H, A60L
VL: B1 VL
B14: H183/L072 VH K52P (antibody, name in Kabat numbering, V domains shown)
VH: B1 VH with A35H, K52P
VL: B1 VL
B15: H183/L072 VH G26V (antibody, name in Kabat numbering, V domains shown)
VH: B1 VH with G26V, A35H
VL: B1 VL
B16: H183/L072 VH Y55I (antibody, name in Kabat numbering, V domains shown)
VH: B1 VH with A35H, Y58I
VL: B1 VL
B17: H183/L072 VH D52aL (antibody, name in Kabat numbering, V domains shown)
VH: B1 VH with A35H, D53L
VL: B1 VL
B18: H183/L072 VH Y55V (antibody, name in Kabat numbering, V domains shown)
VH: B1 VH with A35H, Y58V
VL: B1 VL
B19: H183/L072 VH H35M (antibody, name in Kabat numbering, V domains shown)
VH: B1 VH with A35M
VL: B1 VL
B20: H183/L072 VH W33G (antibody, name in Kabat numbering, V domains shown)
VH: B1 VH with W33G, A35H
VL: B1 VL
B21: H183/L072 VH A32P (antibody, name in Kabat numbering, V domains shown)
VH: B1 VH with A32P, A35H
VL: B1 VL
B22: H183/L072 VH H35L (antibody, name in Kabat numbering, V domains shown)
VH: B1 VH with A35L
VL: B1 VL
B23: H183/L072 VH N31M (antibody, name in Kabat numbering, V domains shown)
VH: B1 VH with N31M, A35H
VL: B1 VL
B24: H183/L072 VH H35I (antibody, name in Kabat numbering, V domains shown)
VH: B1 VH with A35I
VL: B1 VL
B25: H183/L072 VH K52A (antibody, name in Kabat numbering, V domains shown)
VH: B1 VH with A35H, K52A
VL: B1 VL
B26: H183/L072 VH A54P (antibody, name in Kabat numbering, V domains shown)
VH: B1 VH with A35H, A57P
VL: B1 VL
B27: H183/L072 VH W33V (antibody, name in Kabat numbering, V domains shown)
VH: B1 VH with W33V, A35H
VL: B1 VL
B28: H183/L072 VH M34G (antibody, name in Kabat numbering, V domains shown)
VH: B1 VH with M34G, A35H
VL: B1 VL
B29: H183/L072 VH Q50P (antibody, name in Kabat numbering, V domains shown)
VH: B1 VH with A35H, Q50P
VL: B1 VL
B30: H183/L072 VH W33P (antibody, name in Kabat numbering, V domains shown)
VH: B1 VH with W33P, A35H
VL: B1 VL
B31: H183/L072 VH N53M (antibody, name in Kabat numbering, V domains shown)
VH: B1 VH with A35H, N56M
VL: B1 VL
B32: H183/L072 VH T28N (antibody, name in Kabat numbering, V domains shown)
VH: B1 VH with T28N, A35H
VL: B1 VL
B33: H183/L072 VH N53L (antibody, name in Kabat numbering, V domains shown)
VH: B1 VH with A35H, N56L
VL: B1 VL
B34: H183/L072 VH N53I (antibody, name in Kabat numbering, V domains shown)
VH: B1 VH with A35H, N56I
VL: B1 VL
B35: H183/L072 VH D52aI (antibody, name in Kabat numbering, V domains shown)
VH: B1 VH with A35H, D53I
VL: B1 VL
B36: H183/L072 VH N53A (antibody, name in Kabat numbering, V domains shown)
VH: B1 VH with A35H, N56A
VL: B1 VL
B37: H183/L072 VH K52V (antibody, name in Kabat numbering, V domains shown)
VH: B1 VH with A35H, K52V
VL: B1 VL
B38: H183/L072 VH N53V (antibody, name in Kabat numbering, V domains shown)
VH: B1 VH with A35H, N56V
VL: B1 VL
B39: H183/L072 VH Q50G (antibody, name in Kabat numbering, V domains shown)
VH: B1 VH with A35H, Q50G
VL: B1 VL
B40: H183/L072 VH D52aM (antibody, name in Kabat numbering, V domains shown)
VH: B1 VH with A35H, D53M
VL: B1 VL
B41: H183/L072 VH F29N (antibody, name in Kabat numbering, V domains shown)
VH: B1 VH with F29N, A35H
VL: B1 VL
B42: H183/L072 VH W33N (antibody, name in Kabat numbering, V domains shown)
VH: B1 VH with W33N, A35H
VL: B1 VL
B43: H183/L072 VH Y55P (antibody, name in Kabat numbering, V domains shown)
VH: B1 VH with A35H, Y58P
VL: B1 VL
B44: H183/L072 VH N53G (antibody, name in Kabat numbering, V domains shown)
VH: B1 VH with A35H, N56G
VL: B1 VL
B45: H183/L072 VH D52aP (antibody, name in Kabat numbering, V domains shown)
VH: B1 VH with A35H, D53P
VL: B1 VL
B46: H183/L072 VH D52aV (antibody, name in Kabat numbering, V domains shown)
VH: B1 VH with A35H, D53V
VL: B1 VL
B47: H183/L072 VH D52aG (antibody, name in Kabat numbering, V domains shown)
VH: B1 VH with A35H, D53G
VL: B1 VL

Target: Human CD137 ECD (human)
Sequence (chain, as listed by the source limits assumed): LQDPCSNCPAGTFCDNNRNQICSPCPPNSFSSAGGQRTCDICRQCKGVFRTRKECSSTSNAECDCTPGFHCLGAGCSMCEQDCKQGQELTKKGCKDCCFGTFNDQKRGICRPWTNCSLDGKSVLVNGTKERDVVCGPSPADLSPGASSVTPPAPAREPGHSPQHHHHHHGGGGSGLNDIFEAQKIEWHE
Test: single mutant vs template dBBDu183H

Q: For B1, which fold change of affinity is on record?
A: 0 fold

Q: With B2 as the binder, how does the fold change of affinity read?
A: 0 fold

Q: For B3, which fold change of affinity is on record?
A: 0 fold

Q: Which fold change of affinity does the source give for B4 here?
A: 0 fold

Q: How did the fold change of affinity turn out when B5 was run?
A: 0 fold

Q: How did the fold change of affinity turn out when B6 was run?
A: 0 fold

Q: Which fold change of affinity does the source give for B7 here?
A: 0 fold

Q: How did the fold change of affinity turn out when B8 was run?
A: 0 fold

Q: For B9, which fold change of affinity is on record?
A: 0 fold

Q: Which fold change of affinity does the source give for B10 here?
A: 0 fold

Q: With B11 as the binder, how does the fold change of affinity read?
A: 0 fold

Q: B12 was tested. Which fold change of affinity did it give?
A: 0 fold

Q: With B13 as the binder, how does the fold change of affinity read?
A: 0 fold

Q: Which fold change of affinity does the source give for B14 here?
A: 0 fold

Q: How did the fold change of affinity turn out when B15 was run?
A: 0 fold

Q: How did the fold change of affinity turn out when B16 was run?
A: 0 fold

Q: For B17, which fold change of affinity is on record?
A: 0 fold

Q: How did the fold change of affinity turn out when B18 was run?
A: 0 fold

Q: For B19, which fold change of affinity is on record?
A: 0 fold

Q: With B20 as the binder, how does the fold change of affinity read?
A: 0 fold

Q: How did the fold change of affinity turn out when B21 was run?
A: 0 fold

Q: Which fold change of affinity does the source give for B22 here?
A: 0 fold

Q: With B23 as the binder, how does the fold change of affinity read?
A: 0 fold

Q: How did the fold change of affinity turn out when B24 was run?
A: 0 fold

Q: B25 was tested. Which fold change of affinity did it give?
A: 0 fold

Q: How did the fold change of affinity turn out when B26 was run?
A: 0 fold

Q: Which fold change of affinity does the source give for B27 here?
A: 0 fold

Q: For B28, which fold change of affinity is on record?
A: 0 fold

Q: Which fold change of affinity does the source give for B29 here?
A: 0 fold

Q: Which fold change of affinity does the source give for B30 here?
A: 0 fold

Q: Which fold change of affinity does the source give for B31 here?
A: 0 fold

Q: How did the fold change of affinity turn out when B32 was run?
A: 0 fold

Q: For B33, which fold change of affinity is on record?
A: 0 fold

Q: With B34 as the binder, how does the fold change of affinity read?
A: 0 fold

Q: Which fold change of affinity does the source give for B35 here?
A: 0 fold

Q: B36 was tested. Which fold change of affinity did it give?
A: 0 fold

Q: How did the fold change of affinity turn out when B37 was run?
A: 0 fold

Q: B38 was tested. Which fold change of affinity did it give?
A: 0 fold

Q: How did the fold change of affinity turn out when B39 was run?
A: 0 fold

Q: How did the fold change of affinity turn out when B40 was run?
A: 0 fold

Q: For B41, which fold change of affinity is on record?
A: 0 fold

Q: How did the fold change of affinity turn out when B42 was run?
A: 0 fold

Q: With B43 as the binder, how does the fold change of affinity read?
A: 0 fold

Q: With B44 as the binder, how does the fold change of affinity read?
A: 0 fold

Q: Which fold change of affinity does the source give for B45 here?
A: 0 fold

Q: B46 was tested. Which fold change of affinity did it give?
A: 0 fold

Q: For B47, which fold change of affinity is on record?
A: 0 fold

From patent US20210388087A1
